These results are taken from US20250215052A1 (UNIVERSITY OF COPENHAGEN, published 2025).

Where no end group is shown, it is not given here.

This assay concerns the target T1, Protein Interacting with C Kinase-1 (PICK1), purified recombinant (UniProt Q9EP80 1-416).
T1 construct: also called purified PICK1
In words: fluorescence polarization competition, tracer 5-FAM-TAT-C5, purified PICK1.

T1 sequence (Q9EP80 whole entry): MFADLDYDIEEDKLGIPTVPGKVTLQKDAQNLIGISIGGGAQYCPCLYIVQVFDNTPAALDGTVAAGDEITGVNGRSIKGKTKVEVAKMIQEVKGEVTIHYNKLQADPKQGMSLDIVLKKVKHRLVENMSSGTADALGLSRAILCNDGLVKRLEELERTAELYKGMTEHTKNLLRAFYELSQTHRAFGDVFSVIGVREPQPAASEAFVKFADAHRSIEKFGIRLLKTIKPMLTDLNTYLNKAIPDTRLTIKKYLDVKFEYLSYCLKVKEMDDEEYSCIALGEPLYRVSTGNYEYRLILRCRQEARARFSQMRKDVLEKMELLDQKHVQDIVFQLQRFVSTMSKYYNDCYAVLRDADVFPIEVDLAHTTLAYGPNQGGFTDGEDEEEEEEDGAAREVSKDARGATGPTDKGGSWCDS

B1: MAP-P4-(C5)2 (peptide)
peptide 1: HWLKV
peptide 2: KLALKLALKALKAALKLA
modifications: not fully specified (N-terminus); also: dimer: two HWLKV copies joined at N-termini by NPEG4 linker, MAP peptide conjugated to the NPEG4 linker
notes: also called MAP-peptide
B1: the “Fold affinity change (vs TAT-P4-(C5)2)” value came to 0.8 fold and the Ki (usually a dissociation constant, usually derived from enzyme kinetics or from competition with a known ligand) amounted to 5.1 nM.
